First the molecules themselves.
B1: SepF [B. subtilis] / Halo-ZC (HaloTag fused to the final 69 amino acids of B. subtilis FtsZ) [B. subtilis] (parent complex)
chain 1: MSMKNKLKNFFSMEDEEYEYEYIETERESHEEHEQKEKPAYNGNKPAGKQNVVSLQSVQKSSKVVLSEPRVYAEAQEIADHLKNRRAVVVNLQRIQHDQAKRIVDFLSGTVYAIGGDIQRIGSDIFLCTPDNVDVSGTISELISEDEHQRW
chain 2: GFIEQEKDVTKPQRPSLNQSIKTHNQSVPKREPKREEPQQQNTVSRHTSQPADDTLDIPTFLRNRNKRG

The variants in this test derive from B1. The test can be described thus: pull-down (HaloTag bait), densitometric scanning of Coomassie-stained gels; read off a plot.
As for chain 2 T55A, the screen value is ~0.83.
The figure for chain 2 G69A is ~0.69.
Take chain 2 D57A: the screen value was ~0.53.
Turning to chain 2 T60A, the screen value is ~0.66.
Regarding chain 2 R65A, the screen value was ~0.42.
The result for chain 2 N66A reads ~0.74; that for chain 2 K67A, ~0.51.
The result for chain 2 I58A reads ~0.35.
The result for chain 2 F61A reads ~0.03.
As to chain 2 R68A, the screen value is ~0.46.
Take chain 2 P59A: the screen value is ~0.04.
The figure for chain 2 D54A is ~0.9.

(Values after publication PMC3418248 (2012).)
